The record followed here is patent US20240409645A1 (DUALYX, published 2024).

As a reminder, the koff is a measure of how fast the partners let go of each other. High values mean a short-lived complex, low ones a long-lived complex.

Test [1] concerns the target T1, human IL-2Rβ (human, UniProt P14784 27-240, limits assumed).
T1 construct: recombinant protein, coated or immobilised; also called hu IL-2R; IL-2R beta
T1 sequence: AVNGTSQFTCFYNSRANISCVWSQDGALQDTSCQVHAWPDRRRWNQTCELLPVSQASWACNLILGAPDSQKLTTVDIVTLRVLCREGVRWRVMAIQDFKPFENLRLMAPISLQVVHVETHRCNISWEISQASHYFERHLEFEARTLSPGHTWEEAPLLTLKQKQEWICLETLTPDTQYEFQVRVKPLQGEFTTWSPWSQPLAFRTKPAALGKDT
The test is described as follows: P.E. ELISA, coated protein. On the procedure: In a binding ELISA, human or mouse IL-2Rα, IL-2Rβ and IL-2Rγ proteins were coated directly on maxisorp microtiter plates overnight at 4° C. Free binding sites were blocked using 4% Marvel in PBS for 1 hour. Next, 1:5 dilution of P.E. in 1% Marvel/PBS were added to wells and incubated for 1 hour. […] Binding specificity was determined based on O.D. at 450 nm values compared to negative controls.

Test [2] deals with T1, human IL-2Rβ. The experiment in a line: SPR, P.E. off-rate. The procedure:
SPR was performed to determine dissociation rates using Biacore 3000 instrument (GE Healthcare). Briefly, human and mouse IL-2R proteins were immobilized on carboxylmethyl dextran sensor chip (CM5) at approximately 2500 RUs using amine coupling in acetate buffer (GE Healthcare). The VHH-containing P.E. were loaded with a flow rate of 30 uL/min and the off-rates were measured over a 120s period.

B1: FJ1427_P035MP02B06 (VHH)
VHH: QVQLVESGGGLVQPGESLGLSCAASGFTFSNYAMSWVRQAPGKGLEWVSSITGAGRGTDYADSVKGRFTISRDNAKNTLYLQMNSLKPEDTAVYYCAKYSSGTYYPPTPVRGTDYRGQGTQVTVSS
notes: soluble VHH in periplasmic extract; also called clone nr
With B1, the “P.E. binding ELISA OD” value in the test with human IL-2Rβ [1] worked out at 0.125 OD450 nm. Further, in the test with human IL-2Rβ [2], the koff was determined as 0.0046 s⁻¹.

B2: FJ1427_P035MP02G03 (VHH)
VHH: QVQLVESGGGLVQPGGSLGLSCAASGFTFSNYAMSWVRQAPGKGLEWVASITGFGRGTDYADSVKGRFTVSRDNAKNTLYLQMNSLKPEDTAVYYCAKYSSSTYYPPTPARGRDYRGQGTQVTVSS
notes: as for B1
Turning to B2, in the test with human IL-2Rβ [1], the “P.E. binding ELISA OD” value amounted to 0.197 OD450 nm. For the same molecule, the koff in the test with human IL-2Rβ [2] was determined as 0.00293 s⁻¹.

B3: FJ1427_P035MP02C04 (VHH)
VHH: QVQLVESGGGLVQPGGSLELSCAASGFTFSNYAMSWVRQAPGKGLEWVSSITGFGRGTDYADSVKGRFTISRDNDKNTLYLQMNSLKPEDTAVYYCARYSSSTYYPPTPARGRDYRGQGTQVTVSS
notes: as for B1
Turning to B3, in the test with human IL-2Rβ [1], the “P.E. binding ELISA OD” value is 0.424 OD450 nm. Further, in the test with human IL-2Rβ [2], the dissociation rate constant (koff) turned out to be 0.00255 s⁻¹.

B4: FJ1427 P035MP02E02 (VHH)
VHH: EVQLVESGGGLVQTGGSLRLSCAASGSQFINDVMGWYRQVPGKQRELVADMDDTGSTKYADSVKGRFTILRDSVKNTAYLQMSNLKPEDTGVYYCKAGLWIKGRHSDYWGQGTQVTVSS
notes: as for B1
Turning to B4, the “P.E. binding ELISA OD” value with human IL-2Rβ [1] amounted to 0.254 OD450 nm. This molecule gave a koff in the test with human IL-2Rβ [2] of 0.000269 s⁻¹.

B5: FJ1427_P035MP02A05 (VHH)
VHH: EVQLVESGGGLVQTGGSLRLSCAASGSQFINDVMGWYRQVPGKQRELVADMDDTGSTKYADSVKGRFTILRDSVKNTAYLQMSNLKPEDTGVYYCKAGLWIKGRHSDYWGQGTQVTVSS
notes: as for B1
For B5, the “P.E. binding ELISA OD” value with human IL-2Rβ [1] was determined as 0.263 OD450 nm. Besides, the off-rate constant (koff) in the test with human IL-2Rβ [2] came out at 0.000444 s⁻¹.

B6: FJ1427_P035MP02B01 (VHH)
VHH: QVQLVESGGGLVQTGGSLRLSCAASGSQFINDVMGWYRQVPGKQRELVADMDDTGSTKYADSVKGRFTILRDSVKNTAYLQMSNLKPEDTGVYYCKAGLWIKGRHFDYWGQGTQVTVSS
notes: soluble VHH in periplasmic extract; also called clone nr; 98
As for B6, the “P.E. binding ELISA OD” value with human IL-2Rβ [1] turned out to be 0.271 OD450 nm. In the test with human IL-2Rβ [2], this molecule registered a koff of 0.000119 s⁻¹.

B7: FJ1427 P035MP02C05 (VHH)
VHH: QVQLVESGGGLVQTGGSLRLSCAVSGSRFISDVMGWYRQVPGKQRELVADMADGGSAKYADSVKGRFSILRDSVKNTVYLQMSSLKPEDTGIYYCKAGLWIAGRHSDYWGQGTQVTVSS
notes: as for B1
For the molecule B7, the “P.E. binding ELISA OD” value in the test with human IL-2Rβ [1] is 0.237 OD450 nm. The molecule further registered a koff in the test with human IL-2Rβ [2] of 0.000346 s⁻¹.

B8: FJ1427_P035MP02B05 (VHH)
VHH: EVQLVESGGGLVQTGGSLRLSCAASGSQFINDVMGWYRQVPGKQRELVADMDDTGSTKYADSVKGRFTILRDSVKNTAYLQMSNLKPEDTGVYYCKAGLWIKGRHFDYWGQGTQVTVSS
notes: soluble VHH in periplasmic extract; also called clone nr; 130
In the case of B8, the “P.E. binding ELISA OD” value with human IL-2Rβ [1] was found to be 0.553 OD450 nm. The molecule also gave a koff with human IL-2Rβ [2] of 0.000292 s⁻¹.

B9: FJ1427 P035MP02A04 (VHH)
VHH: EVQLVESGGGLVQTGGSLRLSCTASGSQFINDVMGWYRQVPGKQRELVADMDDTGSTKYADSVNGRFTILRDSVKNTAYLQMSNLKPEDTGVYYCKAGLWIKGRHSDYWGQGTQVTVSS
notes: as for B1
For B9, the “P.E. binding ELISA OD” value in the test with human IL-2Rβ [1] came out at 0.533 OD450 nm. Besides, in the test with human IL-2Rβ [2], the off-rate constant (koff) amounted to 0.000368 s⁻¹.

B10: FJ1427 P035MP02D01 (VHH)
VHH: QVQLQESGGGLVQTGGSLRLSCAASGSQFINDVMGWYRQVPGKQRELVADMDDTGSTKYADSVKGRFTILRDSVKNTAYLQMSNLKPEDTGVYYCKAGLWIKGRHSDYWGQGTQVTVSS
notes: soluble VHH in periplasmic extract; also called clone nr; 100
On to B10, for which the “P.E. binding ELISA OD” value in the test with human IL-2Rβ [1] came to 0.573 OD450 nm. In the test with human IL-2Rβ [2], the koff was 0.000167 s⁻¹.

B11: FJ1427 P035MP02F04 (VHH)
VHH: EVQLVESGGGLVQTGGSLRLSCAASGSQFINDVMGWYRQVPGKQRELVADMDDTGSTKYADSVKGRFTILRDSVKNTAYLQMSNLKPEDTGVYYCKAGLWIKGRHFDYWGQGTQVTVSS
notes: as for B1
With B11, the “P.E. binding ELISA OD” value with human IL-2Rβ [1] was 0.516 OD450 nm. The same molecule returned a koff with human IL-2Rβ [2] of 0.000343 s⁻¹.

B12: FJ1427 P035MP02G05 (VHH)
VHH: EVQLVESGGGLVQTGGSLRLSCAASGSQFINDVTGWYRQVPGKQRELVADMDDTGSTKYADSVKGRFTILRDSVKNTAYLQMSNLKPEDTGVYYCKAGLWIKGRHSDYWGQGTQVTVSS
notes: as for B1
For the molecule B12, the “P.E. binding ELISA OD” value with human IL-2Rβ [1] amounted to 0.567 OD450 nm. In the test with human IL-2Rβ [2], this molecule gave an off-rate constant (koff) of 0.000432 s⁻¹.

B13: FJ1427_P035MP02F05 (VHH)
VHH: EVQLVESGGGLVQTGGSLRLSCAVSGSRFISDVMGWYRQVPGKQRELVADMADGGSAKYADSVKGRFSILRDSVKNTVYLQMSSLKPEDTGIYYCKAGLWIAGRHSDYWGQGTQVTVSS
notes: as for B1
On to B13, for which the “P.E. binding ELISA OD” value with human IL-2Rβ [1] came out at 0.206 OD450 nm. In addition, the koff with human IL-2Rβ [2] is 0.000334 s⁻¹.

B14: FJ1427 P035MP02C03 (VHH)
VHH: EVQLVESGGGLVQTGGSLRLSCAASGSQFINDVMGWYRQVPGKQRELVADMDDTGSTEYADSVKGRFTILRDSVKNTAYLQMSNLKPEDTGVYYCKAGLWIKGRHFDYWGQGTQVTVSS
notes: soluble VHH in periplasmic extract; also called 14-MP02C03; clone nr
As to B14, the “P.E. binding ELISA OD” value with human IL-2Rβ [1] was determined as 0.183 OD450 nm. In the test with human IL-2Rβ [2], this molecule displayed a koff of 0.000714 s⁻¹.

B15: FJ1427_P035MP02G04 (VHH)
VHH: QVQLVESGGGLVQAGGSLRLSCAASGSQFINDVMGWYRQVPGKQRELVADMDDTGSTKYADSVKGRFTILRDSVKNTAYLQMSNLKPEDTGVYYCKAGLWIKGRHFDYWGQGTQVTVSS
notes: as for B1
As to B15, the “P.E. binding ELISA OD” value with human IL-2Rβ [1] was 0.549 OD450 nm. In addition, the off-rate constant (koff) in the test with human IL-2Rβ [2] came to 0.000295 s⁻¹.

B16: FJ1427_P035MP02D04 (VHH)
VHH: QVQLVESGGGLVQTGGSLRLSCAVSGSRFISDVMGWYRQVPGKQRELVADMADGGSAKYADSVKGRFSILRDSVKNTVYLQMSSLKPEDTGIYYCKAGLWIAGRHSDYWGQGTQVTVSS
notes: as for B1
As for B16, the “P.E. binding ELISA OD” value with human IL-2Rβ [1] was 0.447 OD450 nm. The molecule also had a koff with human IL-2Rβ [2] of 0.000358 s⁻¹.

B17: FJ1427_P035MP02F01 (VHH)
VHH: EVQLVESGGGLVQTGGSLRLSCAVSGSRFISDVMGWYRQVPGKQRELVADMADGGSAKYADSVKGRFSILRDSVKNTVYLQMSSLKPEDTGIYYCKAGLWIAGRHSDYWGQGTQVTVSS
notes: as for B1
As to B17, the “P.E. binding ELISA OD” value with human IL-2Rβ [1] was determined as 0.469 OD450 nm. Further, in the test with human IL-2Rβ [2], the koff came out at 0.0003 s⁻¹.

B18: FJ1427_P035MP02E01 (VHH)
VHH: EVQLVESGGGLVQIGGSLRLSCAASGRTFSSITMAYFRQVPGKEREWVAGINFSGTRTFYADSVKGRFLISRDDAKSTMYLQMNSLKPEDTAVYYCAASPRGFYGPGNALYDYWGQGTQVTVSS
notes: as for B1
On to B18, for which, in the test with human IL-2Rβ [1], the “P.E. binding ELISA OD” value turned out to be 1.11 OD450 nm. Besides, the koff with human IL-2Rβ [2] stood at 4.5e-05 s⁻¹.

B19: FJ1427_P035MP02E05 (VHH)
VHH: EVQLVESGGGLVQIGGSLRLSCAASGRTFSSITMAYFRQVPGKEHEWVAGINFSGTRTFYADSVKGRFLISRDDAKSTMYLQMNSLKPEDTAVYYCAASPRGFYGPGNALYDYWGQGTQVTVSS
notes: as for B1
As for B19, the “P.E. binding ELISA OD” value with human IL-2Rβ [1] was found to be 0.856 OD450 nm. Moreover, the koff with human IL-2Rβ [2] amounted to 0.00031 s⁻¹.

B20: FJ1427 P035MP02H05 (VHH)
VHH: EVQLVESGGGSVQTGGSLRLSCVVSGSHFISDVMGWYRQVPGKQRELVADMADGGSAKYGDSVKGRFTILRDSVKNTVTLQMSSLNPEDTGVYYCKAGLWITGRHSDYWGQGTQVTVTS
notes: as for B1
For the molecule B20, in the test with human IL-2Rβ [1], the “P.E. binding ELISA OD” value stood at 0.192 OD450 nm. The molecule further gave a koff with human IL-2Rβ [2] of 0.000268 s⁻¹.
